From US20150344570A1 (published 2015)

T1: FcγRIIa R extracellular domain with C-terminal His tag (human, UniProt P12318 34-217)
T1 construct: extracellular domain; also called FcgRIIa R; 2aR; not shown: His tag at the C terminus
T1 sequence (looked up): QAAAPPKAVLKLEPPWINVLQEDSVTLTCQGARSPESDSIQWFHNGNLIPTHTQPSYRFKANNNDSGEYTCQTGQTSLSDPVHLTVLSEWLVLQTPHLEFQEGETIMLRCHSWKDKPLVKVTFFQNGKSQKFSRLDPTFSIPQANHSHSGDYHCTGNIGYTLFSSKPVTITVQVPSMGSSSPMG


Biological target: T1, FcγRIIa R extracellular domain with …
Test: SPR (Biacore), relative FcγRIIa R binding, GpH7-A5/GpH7-B3/GpL16-k0 = 100

Binder	He/Con_2aR
GpH7-A5/GpH7-B3 variant I336_08L/GpL16-k0 (antibody, human IgG1, kappa, heterodimerized: alteration in one H chain only; also called He Ab I336_08L) heavy 1: not shown heavy 2: not shown light: DIVMTQSPLSLPVTPGEPASISCQASESLVHSNRNTYLHWYLQKPGQSPQLLIYKVSNRFSGVPDRFSGSGSGTDFTLKISRVEAEDVGVYYCSQNTHVPPTFGQGTKVEIERTVAAPSVFIFPPSDEQLKSGTASVVCLLNNFYPREAKVQWKVDNALQSGNSQESVTEQDSKDSTYSLSSTLTLSKADYEKHKVYACEVTHQGLSSPVTKSFNRGEC	110 % of control
GpH7-A5/GpH7-B3 variant P238_03V/GpL16-k0 (antibody, human IgG1, kappa, heterodimerized: alteration in one H chain only; also called He Ab P238_03V) heavy 1: not shown heavy 2: not shown light: DIVMTQSPLSLPVTPGEPASISCQASESLVHSNRNTYLHWYLQKPGQSPQLLIYKVSNRFSGVPDRFSGSGSGTDFTLKISRVEAEDVGVYYCSQNTHVPPTFGQGTKVEIERTVAAPSVFIFPPSDEQLKSGTASVVCLLNNFYPREAKVQWKVDNALQSGNSQESVTEQDSKDSTYSLSSTLTLSKADYEKHKVYACEVTHQGLSSPVTKSFNRGEC	120 % of control
GpH7-A5/GpH7-B3 variant K334_02A/GpL16-k0 (antibody, human IgG1, kappa, heterodimerized: alteration in one H chain only; also called He Ab K334_02A) heavy 1: not shown heavy 2: not shown light: DIVMTQSPLSLPVTPGEPASISCQASESLVHSNRNTYLHWYLQKPGQSPQLLIYKVSNRFSGVPDRFSGSGSGTDFTLKISRVEAEDVGVYYCSQNTHVPPTFGQGTKVEIERTVAAPSVFIFPPSDEQLKSGTASVVCLLNNFYPREAKVQWKVDNALQSGNSQESVTEQDSKDSTYSLSSTLTLSKADYEKHKVYACEVTHQGLSSPVTKSFNRGEC	105 % of control
GpH7-A5/GpH7-B3 variant K334_13S/GpL16-k0 (antibody, human IgG1, kappa, heterodimerized: alteration in one H chain only; also called He Ab K334_13S) heavy 1: not shown heavy 2: not shown light: DIVMTQSPLSLPVTPGEPASISCQASESLVHSNRNTYLHWYLQKPGQSPQLLIYKVSNRFSGVPDRFSGSGSGTDFTLKISRVEAEDVGVYYCSQNTHVPPTFGQGTKVEIERTVAAPSVFIFPPSDEQLKSGTASVVCLLNNFYPREAKVQWKVDNALQSGNSQESVTEQDSKDSTYSLSSTLTLSKADYEKHKVYACEVTHQGLSSPVTKSFNRGEC	109 % of control
GpH7-A5/GpH7-B3 variant K326_15Y/GpL16-k0 (antibody, human IgG1, kappa, heterodimerized: alteration in one H chain only; also called He Ab K326_15Y) heavy 1: not shown heavy 2: not shown light: DIVMTQSPLSLPVTPGEPASISCQASESLVHSNRNTYLHWYLQKPGQSPQLLIYKVSNRFSGVPDRFSGSGSGTDFTLKISRVEAEDVGVYYCSQNTHVPPTFGQGTKVEIERTVAAPSVFIFPPSDEQLKSGTASVVCLLNNFYPREAKVQWKVDNALQSGNSQESVTEQDSKDSTYSLSSTLTLSKADYEKHKVYACEVTHQGLSSPVTKSFNRGEC	136 % of control
GpH7-A5/GpH7-B3 variant K326_07I/GpL16-k0 (antibody, human IgG1, kappa, heterodimerized: alteration in one H chain only; also called He Ab K326_07I) heavy 1: not shown heavy 2: not shown light: DIVMTQSPLSLPVTPGEPASISCQASESLVHSNRNTYLHWYLQKPGQSPQLLIYKVSNRFSGVPDRFSGSGSGTDFTLKISRVEAEDVGVYYCSQNTHVPPTFGQGTKVEIERTVAAPSVFIFPPSDEQLKSGTASVVCLLNNFYPREAKVQWKVDNALQSGNSQESVTEQDSKDSTYSLSSTLTLSKADYEKHKVYACEVTHQGLSSPVTKSFNRGEC	147 % of control
GpH7-A5/GpH7-B3 variant K326_20W/GpL16-k0 (antibody, human IgG1, kappa, heterodimerized: alteration in one H chain only; also called He Ab K326_20W) heavy 1: not shown heavy 2: not shown light: DIVMTQSPLSLPVTPGEPASISCQASESLVHSNRNTYLHWYLQKPGQSPQLLIYKVSNRFSGVPDRFSGSGSGTDFTLKISRVEAEDVGVYYCSQNTHVPPTFGQGTKVEIERTVAAPSVFIFPPSDEQLKSGTASVVCLLNNFYPREAKVQWKVDNALQSGNSQESVTEQDSKDSTYSLSSTLTLSKADYEKHKVYACEVTHQGLSSPVTKSFNRGEC	131 % of control
GpH7-A5/GpH7-B3 variant K334_04F/GpL16-k0 (antibody, human IgG1, kappa, heterodimerized: alteration in one H chain only; also called He Ab K334_04F) heavy 1: not shown heavy 2: not shown light: DIVMTQSPLSLPVTPGEPASISCQASESLVHSNRNTYLHWYLQKPGQSPQLLIYKVSNRFSGVPDRFSGSGSGTDFTLKISRVEAEDVGVYYCSQNTHVPPTFGQGTKVEIERTVAAPSVFIFPPSDEQLKSGTASVVCLLNNFYPREAKVQWKVDNALQSGNSQESVTEQDSKDSTYSLSSTLTLSKADYEKHKVYACEVTHQGLSSPVTKSFNRGEC	110 % of control
GpH7-A5/GpH7-B3 variant P238_04F/GpL16-k0 (antibody, human IgG1, kappa, heterodimerized: alteration in one H chain only; also called He Ab P238_04F) heavy 1: not shown heavy 2: not shown light: DIVMTQSPLSLPVTPGEPASISCQASESLVHSNRNTYLHWYLQKPGQSPQLLIYKVSNRFSGVPDRFSGSGSGTDFTLKISRVEAEDVGVYYCSQNTHVPPTFGQGTKVEIERTVAAPSVFIFPPSDEQLKSGTASVVCLLNNFYPREAKVQWKVDNALQSGNSQESVTEQDSKDSTYSLSSTLTLSKADYEKHKVYACEVTHQGLSSPVTKSFNRGEC	174 % of control
GpH7-A5/GpH7-B3 variant K326_04F/GpL16-k0 (antibody, human IgG1, kappa, heterodimerized: alteration in one H chain only; also called He Ab K326_04F) heavy 1: not shown heavy 2: not shown light: DIVMTQSPLSLPVTPGEPASISCQASESLVHSNRNTYLHWYLQKPGQSPQLLIYKVSNRFSGVPDRFSGSGSGTDFTLKISRVEAEDVGVYYCSQNTHVPPTFGQGTKVEIERTVAAPSVFIFPPSDEQLKSGTASVVCLLNNFYPREAKVQWKVDNALQSGNSQESVTEQDSKDSTYSLSSTLTLSKADYEKHKVYACEVTHQGLSSPVTKSFNRGEC	135 % of control
GpH7-A5/GpH7-B3 variant K334_10E/GpL16-k0 (antibody, human IgG1, kappa, heterodimerized: alteration in one H chain only; also called He Ab K334_10E) heavy 1: not shown heavy 2: not shown light: DIVMTQSPLSLPVTPGEPASISCQASESLVHSNRNTYLHWYLQKPGQSPQLLIYKVSNRFSGVPDRFSGSGSGTDFTLKISRVEAEDVGVYYCSQNTHVPPTFGQGTKVEIERTVAAPSVFIFPPSDEQLKSGTASVVCLLNNFYPREAKVQWKVDNALQSGNSQESVTEQDSKDSTYSLSSTLTLSKADYEKHKVYACEVTHQGLSSPVTKSFNRGEC	106 % of control
